From a protein production outcome set (Wang et al. 2014) come the findings set out here.

This data set can be described thus: label from the status in PepcDB records.

As for “MRDILKKELILLGILISISFAGCVDQNPEEYYSKGILQYDDGNYTESIDLFEKAIQLNPEESKYWLMKGKALYNLERYEEAVDCYNYVINVIEDEYNKDVWAAKADALRHIEGKEVEAEIAEARAK”, the protein production entry is recorded as “failed”.
Then “MRDITAQGSNVEEAIQNALATLETTRDKVEVEVLDEGKKGIFGIGSRLAMVKVIEKEDGIQVAIDYLLDVATKMGAVITIDVEEVGKDVKLQIKGESLGMLIGKHGQTLNALQYLTQLIANKTTSQYKNIIVNVGDYRERRHETLVLLANKMADKALKTKRAVHLEPMPSFERKIIHAILSENEQIETHSEGRDPYRYIVIKPVKK”, with “failed”; and “MRDTIPVTILSGSLGAGKTTLLNHLLTEAGDRDIAVLVNDMGTVNVDAELIAEGSELDVDDGVAELSNGCICCELQDDLETAVVRLADDRDFDALVVESSGISEPAPVARLFTTESRVAALYRVDTLVTVLDTRLFLDSFAGETPERRGSGEASADGDGDDTEADGADRPLSDLMVEQVELSNLVVLNKTDLCTDEEMDEAEELVRALQPDAETIRTTFSQVDPDRLFDRALFDQTEISDLPGWKRALAESGHGHGEGSHDHGGDSHETDAHEGDTGHGHDDHHHPEEVYGVTSFTYRRRRPFHPDRLAEVLQDLPSGVVRSKGTVWLAGSERRVVIGQAGPSIRAEAQGPWIASLPEVEQDMYRSNRPELDWHDEHGDRRTELVFIGTDYDESALRTALDDALVTDEEWTESESLTGPFPAEQGEEAVIRSP”, with “not failed”.
Then “MRDYVEIGMGREARRTYHLDSVAIVPSRRTRSSKDVDTTWHIDAYTFDIPFMSHPTDALATPDFVIEMDKQGGLGVINAEGLWGRHADLDAAIQEVITAYGDDELDLGSCNRATKKLQELHAAALDTELLVERIAQVRSSGAT”, with “failed”; and “MREAIIKRAAKELKEGMYVNLGIGLPTLVANEVSGMNIVFQSENGLLGIGAYPLEGSVDADLINAGKETITVVPGASFFNSADSFAMIRGGHIDLAILGGMEVSQNGDLANWMIPKKLIKGMGGAMDLVHGAKKVIVIMEHCNKYGESKVKKECSLPLTGKGVVHQLITDLAVFEFSNNAMKLVELQEGVSLDQVKEKTEAEFEVRL”, with “failed”; and “MREIIVDNFAGGGGASTGIELAIGRSVDIAINHDPNAVAMHTTNHPDTLHYCESVYSIRPKVATAGRRVGLAWFSPDCRHFSKAKGAKPVEKTIRGLAWIVIRWALDVGPRVMMLENVEEFKTWGPLLAAEMRPDPERVGETFQAFVGMLTTGIPADHPALLECCEFLNISLDSEDAARLVNGLGYTVEYRELRACDYGAPTIRKRFFMVMRRDGQPIVWPEATHGDPKSPAVLAGKLAPWRTAAECIDWSIPAPSIFDRKKPLVENSLKRIARGI”, with “failed”.
The result for “MRELFKSVRGFFRLLRMIFPKRLKNAFLGLSELFYYASSLSFYTILSLSPILLFVFSLFVSHYLQAHSGEMEALIFPNAPKLIGAIKDFLENFKKTDMTLGTLEEVSIVVALVLFCENYRSIASKIFQAKPRDYAHFKGKEIFLFWGFGTTLVFLFALPLVVFFDIKIQVFFEDKNSNLLHVLRWIGTYAFFLILFTIPTNKVFKHYFWVFLWVFFTSVSWHVLKWAFTYYVLYNRTYHELYGSVSILWFLMSWVYVSWLVILIGMYGCKVCDAFDPKEVFKKFLGFFKKET” reads “failed”; that for “MRERAASARGVQLARSSRVFRKAEWWNDARRFRTVIASAAKQSDRHRGDSPGLLRCARNDACEAMAERHTATGSDRSTSSLASFELRVERNATFPGNVTRLLHLIVVLLLVAGRTAFAAPCQFESQGDGRVAAIVDARSVRLDDGREIRLTGIEPTATTKQALASLLVGRDVTLRSADDTPDRYGRQGGLIFIGDSDTPVQAMLLAQGDAIVSAEIADKDCAAALMSSEAEARRQKKGNWADPSAIKNAESPDDILAGIGRFVVVEGKVLSVRQAGAMTYLNFGRNWTRGFAVTISRRASPAFETAGIALKSLENRRIRVRGWVEGNTGPRIDVRLVGQVELLGANEPAGVRP”, “failed”; that for “MRERVLFFDLLRCVAAVAVIAIHVLAPYRNELGVIPMDQWLTAVGVNSVTRWAVPVFILITGALMLSDTRPFDGKYYVKRRLGKVLVPFLIWSTFYAYLSGWTAQGFDFETVKEVLSNSPFHATYYHLGFFYYFIPLYFVIPLFQWMARNVDDNVLYTYLAFWMFTSTLFLFKIDGPWSNQMWLYMGYLPLGYVLFQKVPLNRSMVTLFTGFGLVALAVTFTMVVTNSLEAEKYTVGRWLSYKTLNVILAASMIFMLCRYFGEGLPKNVQKVVSFISQHSLGIYLLHPIFLWPMKEFGWYTGHPGWVIPVWIVLSGAGALAMSYLFSKSAKTRWLLP”, “failed”.
Regarding “MRETFADDLRSLHNKLIEMGRLTEVALQQAIEAFQTQNKNLAMAVIDGDGSIDKLEEEVNDFALWLIAKQQPVATDLRRIVAAIKIASDIERIADFAVNIAKACIRIGGQPFVMDIGPLVLMYRLATDMVSTAIAAYDREDASLAAQIADMDHRVDEQYGEMMKSLLEVEKTDKETLAQMNVLALVARYIERTADHATNIAEHLVYLVKGKHYDFND”, the protein production entry is “not failed”.
Then “MRETRPNPQEILKEINKNEKDSKRGKLKIFFGYAAGVGKTYAMLEAAHSAIAMGLDVVVGYIEPHTRPETLALLEGLELLPNLEVAYRGLVLREFNLDLALSRKPDLIIVDELAHTNVKGLRHEKRYSDIEELLDAGIDVYTTLNVQHIESLNDVVASITNIVVKERIPDRIFKNAFQIELIDVDPSVLIERLNSGKIYVKNQAKKALKNFFIRENLVALRELALRETANSVNKEVMINKNENFYHTNEHILVCLSSSPSNSKVIRTSARMAEAFHGKFTALFVETTSSRELKEGNIERLREHVKLAKDLGAKIETVYGDDVAYQVSEFSKISSVSKVIIGRTKKKRHLWSRFGIVDRLIELAPELDVYIIPDEEENVEDINKICLNKEKITIKDSLKTLGILIITIIISLFFENLGFSEANIIIVFILGVLIIAKETYGRIYGVISSLFSVLLFNFFFTEPKFTFNAYDSSYIFTFFIMLVSALITSTLTNKVKVQANKSAITAYRTNILLESSSELGRCSDLEEIILKSQEQVSRLVKKPVVVYKAKNSQIENIYNYKFKDGSELSDKYINLDEQGVVLWVINNRKYAGKGTETLPGAKAMYIPVLGQEDIGIVIGIILEEGEELEEGEKSLLIAMINQVSFVIDNYILEEAKKQALMQAENEKFKANLLRAVSHDLRTPLTSISGSASLLLNNNFDEETKRKLTLDIYDDSIWLINLVENLLSVSRIDNGNINLNREAQLVEEIILEALQHVNRNACDYNIEIDLKDELLMVNADVRLIIQVIINIVDNAIKYTEKGSNIKISAFSKGDNVIIEIADNGVGISKEDKEHIFDMFFTSKKNISDSRRGLGLGLALCKSIINVHEGEIYVRDNKPRGTIIGFSLQRFEVNNNETSNFSY”, with “failed”.
“MRETVKLIEVARELPVSRKNLQMLLLLLLCGAAAYIINLADPALEPLFLALVFGIVAGNLQRDEEKKRVVERYVPFLLPIGITLYGVNINIPYLGEFHPEIVAATLISTSLIFLTVFWLSSRLKLSRQMSILLACGSGICGVSAIAIISPLIKPRKEEFSAAIMIITAVGLTGAILYPSIAHYASISPDEFAVLAGATLHQTGIVKISSQLFGVEEEALAIKGIRIAMIALVVLILSIIYSESRFYVPWYIVSFLGVALFSSTYLPGEVVQALRPLATVMFATTLAAICYTVNVGRVQRVGVKPLFASYAGWAVGVAFVLLLLGSGAL”: the protein production result is on record as “failed”.
Then “MRFHLPGPEDTVRLGRALAKALLQIDGLRVVLLAGTLGSGKTTMTRGLVAELPGGGMAEVSSPSFNICNLYPTTPPTAHFDLYRLEGNEPDDALLDLIDEGESIILIEWAEHLPEYALPPVWLRLAWHAAGEGRIVEAHGNGAPALVALDMVAAGVPDLVQP”, with “failed”.
Regarding “MRFLFSLIGLVYSSLIKLAVPFNPKARMMVRGRWKVWRQLREGIVPGGRYIWFHAASLGEFEQGRPMIERIRSEYPDYRIVLTFFSPSGYEVRKNYEGADVIVYLPADRLPRVRKFLDLVKPEMAIFIKYDFWPCFLTELERRQIPTYLVSSIFRPSQLFFRWYGGAYKRLLHCFTHIFVQDKASRLLLEKHGIDHVSVAGDTRFDRVISVYEARKSLPLIERFAASVPEDGLVIVGGSSWPPDEEILVRYFNRNPKIKLILAPHEIDKEHLLQIISHIRRPFIRLSEATESDIARQDCLIVDSFGLLSSIYRYGQVAFIGGGFGKGIHNTPEAAVYGIPVIFGPRYEKFKEARELIDVGGGFSVSSAEEFGNLIKRIQTDKAYRDAASRAAADYIRSNAGATGYIVHRIMKLEHHHHHH”, the protein production entry is recorded as “not failed”.
Take “MRFPPLLFFQDSEAVKRIANSVRGTKDDDAEIKDHSMRFIRNAISGDQQKEILNVDMLRYIAWVLVALNENIVTARTVIRERDAVEDALKNQQPEDIENFADDLKINMKYNRDLERFEIGVFDFVKYASRVTGSQYRLSNQSVIKGIVYCQKDVAIKILRESFVSNMFKVIDSIDQTTASPVLSDQTDSINELREFYKKSVYAKLTIGRGNTKAFPPCMKEIIRNLHEGINVPHMGRLAIASFLHKVGYTEDEIVEYFRNAPDFDESITRYQIKHLSGEISGVEYSPPKCETMRSNHLCFMDDDKLCHQDWMKHPLTYYEVKSRRLGLEHHHHHH”: the protein production entry is on record as “failed”.
For the sequence “MRFRDRRHAGALLAEALAPLGLEAPVVLGLPRGGVVVADEVARRLGGELDVVLVRKVGAPGNPEFALGAVGEGGELVLMPYALRYADQSYLEREAARQRDVLRKRAERYRRVRPKAARKGRDVVLVDDGVATGASMEAALSVVFQEGPRRVVVAVPVASPEAVERLKARAEVVALSVPQDFAAVGAYYLDFGEVTDEDVEAILLEWAG”, the protein production result is “not failed”.
For the sequence “MRFRNAILFVALAIAWGSAFTAIKAGLEYFPPILFAAFRYDLAGLLMLGYAVYATDQWVPKSRTDWIVVGIGGSLLIAAYHIFLFVGEQGTTSAAAAIVVSLSPILTTGFARAFLPDERLTTLGIVGLLVGFLGVGVLSNPDPGNLLNPRTVSLFLVFLAAASFALGSVLTRRFDDDLEIETMEAWSMLLGAVLMHGISFGVSESVADVQWTTEAVLALLYLVVVASALGFLIYFDLLERLGPIEINLVSYAAPVVAAATGLLFLSETPTVYTGVGFTCILVGFGLLKRDALRNEVARFSGTPNRGE”, the protein production entry is “failed”.
As for “MRFSSIFKIIILNIFISKMAHAAVCEERYPADSEECQYVQELEQKAEQGDESAQFALGSWYAEGRYVKPDYKLAIKWLEKAGKQGSDFSYFILGYHYNYGENFPLSRQKALEWYRKAAELGDSSTQEILGDAYMYGDGFPQNTQLALEWYRKAASPTNDAGVVRGQGSASSAQFKLGVMYAHGQGVPQDYQQTAILMRKAAENMYYPAQLYLGVAYFYGEGVPQDYRQAVYWLNEGIPGSYTPGHIPLSALYDKAHPADRVHSQTWYRKTAQRVMAKVQYNFGVWYYNGYHLLKDHNLALEWYRRAAAQGLAEAQDAIGVMFMQGEGVSQDYQQALAWYRKAARQGLPAAQTHLGIMSAFGRDVAQSDRQAIAWYRKAAKQDFAKAQYQLGVAYSTGRGVPENSRNALKWYLKAAEQGFTPAQSALGEIYAHGRQGVPKDNKQAYIWYYMASMYTEKSKDDCSALIAERNRLKGTLTPDQLSETYAAFNLIWRKIDQSKEAKKIARKKY”, the protein production result is listed as “failed”.
Then “MRFVVAFFWTFLLTQMACYIVGAMNGAGYDLQTSVIMGFIITAAVIVLGEIMPVKQDASQH”, with “failed”.
The result for “MRGEFLSRSADETREYARRFASGLKPGDTVCLTGPLGAGKTEFMRGITEAFGCEEQLSSPTFSLMNIYEGLLRGQPFELHHFDLYRLESEKELDSAGFDDYLSGPFLSVVEWGERFASLDRRYTRRVQLFIAGESQRKIVIT” reads “failed”.
Then “MRGLRSESKVLELVVIPADHSIAELLKMKENEPVNKLVRVRYAEGEPLQYHTSYIPWKAAPGLAQEECTGSLFELLRTKYNIEISRGTESIEPILTDETISGHLLTNVGAPAFLSESLTYDKNEEVVEYAQIITRGDRTKFTVEQSYHS”, with “failed”.
